Experimental data reported in patent CN110144011A (SHANGHAI NOVAMAB BIOPHARMACEUTICALS CO LTD, dated 2019).
Substitutions are numbered along the chain they refer to.

Legend:
[1] = target: TIM-3 on HEK 293T TIM-3稳转细胞 (UniProt Q8TDQ0); assay: flow cytometry on HEK 293T TIM-3 stable cells, 6 ug antibody per 5x10^5 cells, goat-anti-human FITC
[2] = target: TIM-3 on HEK 293T TIM-3稳转细胞 (UniProt Q8TDQ0); assay: flow cytometry on HEK293T TIM-3 stable cells, 6 ug nanobody per well, anti-His Alexa Fluor 488
[3] = target: T1, TIM3(ECD)-Fc抗原 (human, UniProt Q8TDQ0 22-202); assay: ELISA of crude periplasmic extract on antigen-coated plate, anti-HA detection; clones positive at OD ratio to control >3
T1 construct: extracellular domain;domain: Fc; Made in HEK293F cells, purified on Protein A; also called 人TIM3(ECD); pFUSE-IgG1-TIM3(ECD); not shown: TEV cleavage site at the C-terminus of TIM3(ECD); IgG1 Fc of the pFUSE-IgG1 vector
T1 sequence (looked up): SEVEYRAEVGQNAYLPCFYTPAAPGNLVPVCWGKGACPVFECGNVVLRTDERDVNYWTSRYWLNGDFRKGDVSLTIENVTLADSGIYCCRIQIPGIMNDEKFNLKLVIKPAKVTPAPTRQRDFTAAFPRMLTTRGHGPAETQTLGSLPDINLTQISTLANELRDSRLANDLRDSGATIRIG

TIM-3阳性抗体(bench marker，BMK; TSR-022) (antibody)
阳性细胞比例 [1]: 98.1%

B1: Nb18 (VHH)
VHH: QVQLQESGGGLVQPGGSLRLSCAASGFTFSVADMSWVRQGPGKGFEWVSSINSDGVSTYYADSVKGRFTISRDNAENTLYLRANSLKTEDTAVYYCAIGHTPCTAGSCRRGQGTQVTVSS
结合力 (阳性细胞的比例) [2]: > 80%

B2: Nb4 (VHH)
VHH: QVQLQESGGGSVQAGGSLRLSCTASGYTYSRACMGWFRQAPGKQREWVSGIRHDGSTSYADSVKGRFTISRDNAKNTLYLQMNSLKPEDTAMYYCGADIDCRQSRPPYWGQGTQVTVSS
notes: Camel VHH from the pMECS vector, made in E. coli; detected through HA tag (ELISA) or His tag (flow cytometry); also called 抗体株4
binding result [3]: binds

B3: Nb3 (VHH)
VHH: B2 VHH with A14V, E46D
notes: Camel VHH from the pMECS vector, made in E. coli; detected through HA tag (ELISA) or His tag (flow cytometry); also called 抗体株3
binding result [3]: binds

B4: Nb6 (VHH)
VHH: B2 VHH with A14V, T57I, S58T, Q103G, S104T
notes: Camel VHH from the pMECS vector, made in E. coli; detected through HA tag (ELISA) or His tag (flow cytometry); also called 抗体株6
binding result [3]: binds

B5: Nb8 (VHH)
VHH: B2 VHH with T57I, S58T, S84N, Q103G, S104T
notes: Camel VHH from the pMECS vector, made in E. coli; detected through HA tag (ELISA) or His tag (flow cytometry); also called 抗体株8
binding result [3]: binds

B6: Nb2 (VHH)
VHH: B2 VHH with A14V, A74T
notes: Camel VHH from the pMECS vector, made in E. coli; detected through HA tag (ELISA) or His tag (flow cytometry); also called 抗体株2
binding result [3]: binds

B7: Nb7 (VHH)
VHH: B2 VHH with T23A, T57I, S58T, Q103G, S104T
notes: Camel VHH from the pMECS vector, made in E. coli; detected through HA tag (ELISA) or His tag (flow cytometry); also called 抗体株7
binding result [3]: binds

B8: Nb5 (VHH)
VHH: B2 VHH with A14V, F67S
notes: Camel VHH from the pMECS vector, made in E. coli; detected through HA tag (ELISA) or His tag (flow cytometry); also called 抗体株5
binding result [3]: binds

B9: Nb23 (VHH)
VHH: QVQLQESGGGSVQTGGSLRLSCTASGFTFSSADMSWVRQAPGKGLEWVSSINSGGGWTDYADSVQGRFTISRDNGKNTLYLQMNSLKTEDTAVYYCTIGNTYCSRGACLRGQGTQVTVSS
结合力 (阳性细胞的比例) [2]: > 80%

B10: Nb24 (VHH)
VHH: B9 VHH with S11L, T14P, T23A, S31V, W57R, D59Y, V64M, Q65K, N100H, R105G
结合力 (阳性细胞的比例) [2]: > 80%

B11: Nb27 (VHH)
VHH: QVQLQESGGGLVQPGGSLRLSCAAAGFTFSSSEMTWVRQAPGKGLEWVARISSTSAFTQYAGSVKGRFTISRDNAKNTLYLQLNSLKTEDTAMYYCAKDVYCGGQYCPPVGPGTQVTVSS
结合力 (阳性细胞的比例) [2]: > 80%

B12: Nb22 (VHH)
VHH: QVQLQESGGGSVRAGGSLRLSCAASGYTYSLYCMGWFRQAPGKEREGVAAISAGGGTTYYSDAVKGRFTISRDNAKKTLYLQMNSLNPEDTAMYYCARSGGYCGLLEYPFTSWGPGTQVTVSS
notes: Camel VHH from the pMECS vector, made in E. coli; detected through HA tag (ELISA) or His tag (flow cytometry); also called 抗体株22
结合力 (阳性细胞的比例) [2]: > 80% | binding result [3]: binds

B13: Nb25 (VHH)
VHH: QVQLQESGGGSVQAGGSLRLSCAASVDIYRTYCMGWFRQAPGKQREGVAAISTDGRIRYANSVEGRFTISKDNANNTLYLQMNSLKPEDTAMYFCAADSARCGLWLGGGYPNYWGRGTQVTVSS
notes: Camel VHH from the pMECS vector, made in E. coli; detected through HA tag (ELISA) or His tag (flow cytometry); also called 抗体株25
结合力 (阳性细胞的比例) [2]: > 80% | binding result [3]: binds

B14: Nb16 (VHH)
VHH: QVQLQESGGGSVQAGGSLRLSCTASRSTYCMGWFRQAPGKEREGVAIISSDGRTNYADPVKGRFTISKDNAKNTMFLQMNSLKPEDTAMYYCATRPGNSCGTGIDMPYWGKGTQVTVSS
notes: Camel VHH from the pMECS vector, made in E. coli; detected through HA tag (ELISA) or His tag (flow cytometry); also called 抗体株16
结合力 (阳性细胞的比例) [2]: > 80% | binding result [3]: binds

B15: Nb17 (VHH)
VHH: QVQLQESGGGSVQAGGSLRLSCAASTTLYIASLGWFRQAPGKEREGVAAVDRDGNLDYADSVKGRFTFSRDHAKNTLYLQMNSLKPEDAAMYYCSAALSYVPAGRRLQPDAYNYWGQGTQVTVSS
notes: Camel VHH from the pMECS vector, made in E. coli; detected through HA tag (ELISA) or His tag (flow cytometry); also called 抗体株17
binding result [3]: binds

B16: Nb21 (VHH)
VHH: QVQLQESGGGSVQAGGSLRLYCAASKITYVSSCMGWFRQAPGKEREGVASIDRDGSTTYADSVKGRFTISRDNAKDSLYLQMNSLKPEDTAMYYCAADWGRWCSLEKAVDFVYWGQGTQVTVSS
notes: Camel VHH from the pMECS vector, made in E. coli; detected through HA tag (ELISA) or His tag (flow cytometry); also called 抗体株21
结合力 (阳性细胞的比例) [2]: > 80% | binding result [3]: binds

B17: Nb26 (VHH)
VHH: QVQLQESGGGLVQPGGSLRLSCTASGSTFSTALMGWFRQAPGKEREGVAVISAGGGSTWYADSVKGRFTISRDNTKNTVFLQMISLKPEDTAMYYCASSNSLWTRESRYFGYWGQGTQVTVSS
notes: Camel VHH from the pMECS vector, made in E. coli; detected through HA tag (ELISA) or His tag (flow cytometry); also called 抗体株26
结合力 (阳性细胞的比例) [2]: > 80% | binding result [3]: binds

B18: Nb28 (VHH)
VHH: QVQLQESGGGSVQAGGSLRLSCAATKALVISCLAWFRQAPGKEREWVALIGRDGSTSYPDSVKGRFTFSKNTAKNTLELQMNNLKPEDTGAYYCAAATKQDGIPLNPADYDIWGRGTQVTVSS
notes: Camel VHH from the pMECS vector, made in E. coli; detected through HA tag (ELISA) or His tag (flow cytometry); also called 抗体株28
binding result [3]: binds

B19: Nb19 (VHH)
VHH: QVQLQESGGGSVQAGGSLRLSCAASTYTVVRNCFGWFRQAPGKKREGVAVIDRDGSTRYAASVKGRFTISKDNAKNALYLQMSSLEPEDTAVYYCAADWNNDRSCPLWADGFGYWGQGTQVTVSS
notes: Camel VHH from the pMECS vector, made in E. coli; detected through HA tag (ELISA) or His tag (flow cytometry); also called 抗体株19
binding result [3]: binds

B20: Nb15 (VHH)
VHH: QVQLQESGGGSVQAGGSLKLSCTASVWIFSNCAMAWYRQAPGKEREFVSAIGSFRDTNYADSVKGRFTISRDNAKNTGYLQMNSLKPEDSAMYYCKIQCGTQVNWGQGTQVTVSS
notes: Camel VHH from the pMECS vector, made in E. coli; detected through HA tag (ELISA) or His tag (flow cytometry); also called 抗体株15
binding result [3]: binds

B21: Nb20 (VHH)
VHH: QVQLQESGGGLVQPGGSLRLSCAASGFTFSVADMTWVRQGLGKGFEWVASVNSDGGSTYYADSVKGRFTISRDNAKNTLYLRLNSLKTEDTAVYYCAIGRTPCTGGFCHRGQGTQVTVSS
结合力 (阳性细胞的比例) [2]: > 80%
